Some results are limits rather than exact numbers.

Common to all, as to experiment: cell-based or functional assay
The target in one assay is T1, KDM4C (human, UniProt Q9H3R0 1-1056).
T1 sequence (looked up): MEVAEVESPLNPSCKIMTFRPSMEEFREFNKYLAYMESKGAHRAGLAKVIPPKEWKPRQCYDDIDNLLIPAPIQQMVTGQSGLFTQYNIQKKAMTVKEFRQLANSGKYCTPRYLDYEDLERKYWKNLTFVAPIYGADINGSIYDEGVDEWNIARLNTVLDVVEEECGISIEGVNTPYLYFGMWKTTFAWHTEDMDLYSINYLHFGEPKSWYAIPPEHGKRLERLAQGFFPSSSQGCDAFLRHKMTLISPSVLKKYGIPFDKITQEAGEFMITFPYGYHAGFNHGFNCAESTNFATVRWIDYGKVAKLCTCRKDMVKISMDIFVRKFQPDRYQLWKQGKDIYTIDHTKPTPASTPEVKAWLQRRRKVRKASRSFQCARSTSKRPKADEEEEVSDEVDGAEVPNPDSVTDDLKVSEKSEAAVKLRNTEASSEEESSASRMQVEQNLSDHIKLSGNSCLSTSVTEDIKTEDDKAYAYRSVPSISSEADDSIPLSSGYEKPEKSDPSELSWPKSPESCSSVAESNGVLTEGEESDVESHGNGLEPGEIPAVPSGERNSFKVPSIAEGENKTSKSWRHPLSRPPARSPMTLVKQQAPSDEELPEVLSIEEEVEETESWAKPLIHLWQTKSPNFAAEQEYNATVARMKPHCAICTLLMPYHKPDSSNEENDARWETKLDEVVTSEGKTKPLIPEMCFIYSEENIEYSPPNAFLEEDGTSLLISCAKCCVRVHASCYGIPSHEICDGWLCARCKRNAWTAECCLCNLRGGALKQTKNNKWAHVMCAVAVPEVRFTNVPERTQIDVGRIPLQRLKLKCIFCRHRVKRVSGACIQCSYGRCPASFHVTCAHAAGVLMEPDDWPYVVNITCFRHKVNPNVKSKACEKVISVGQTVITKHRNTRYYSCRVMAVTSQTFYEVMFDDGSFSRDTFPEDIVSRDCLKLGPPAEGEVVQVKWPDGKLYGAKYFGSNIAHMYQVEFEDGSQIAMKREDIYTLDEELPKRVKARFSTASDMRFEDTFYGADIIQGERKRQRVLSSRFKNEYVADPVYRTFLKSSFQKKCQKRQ

A further assay has as its target KDM5C (human, UniProt P41229 1-1560).
Assay [1] addresses T2, N-terminally Hexa-His-tagged KDM4A (residues 1–359) (human, UniProt O75164 1-359).
T2 sequence (looked up): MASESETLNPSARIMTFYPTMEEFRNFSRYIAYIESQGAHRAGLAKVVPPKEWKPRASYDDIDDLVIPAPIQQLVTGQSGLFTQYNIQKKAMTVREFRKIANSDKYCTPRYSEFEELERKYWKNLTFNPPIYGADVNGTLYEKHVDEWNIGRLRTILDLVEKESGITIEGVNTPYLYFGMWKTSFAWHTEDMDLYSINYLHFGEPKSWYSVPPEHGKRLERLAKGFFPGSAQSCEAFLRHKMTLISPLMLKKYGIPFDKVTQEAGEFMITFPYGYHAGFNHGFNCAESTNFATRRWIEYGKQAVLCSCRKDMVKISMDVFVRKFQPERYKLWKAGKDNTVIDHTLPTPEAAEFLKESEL

The target in the next assay is T3, KDM4B (human, UniProt O94953 1-1096).
T3 sequence (looked up): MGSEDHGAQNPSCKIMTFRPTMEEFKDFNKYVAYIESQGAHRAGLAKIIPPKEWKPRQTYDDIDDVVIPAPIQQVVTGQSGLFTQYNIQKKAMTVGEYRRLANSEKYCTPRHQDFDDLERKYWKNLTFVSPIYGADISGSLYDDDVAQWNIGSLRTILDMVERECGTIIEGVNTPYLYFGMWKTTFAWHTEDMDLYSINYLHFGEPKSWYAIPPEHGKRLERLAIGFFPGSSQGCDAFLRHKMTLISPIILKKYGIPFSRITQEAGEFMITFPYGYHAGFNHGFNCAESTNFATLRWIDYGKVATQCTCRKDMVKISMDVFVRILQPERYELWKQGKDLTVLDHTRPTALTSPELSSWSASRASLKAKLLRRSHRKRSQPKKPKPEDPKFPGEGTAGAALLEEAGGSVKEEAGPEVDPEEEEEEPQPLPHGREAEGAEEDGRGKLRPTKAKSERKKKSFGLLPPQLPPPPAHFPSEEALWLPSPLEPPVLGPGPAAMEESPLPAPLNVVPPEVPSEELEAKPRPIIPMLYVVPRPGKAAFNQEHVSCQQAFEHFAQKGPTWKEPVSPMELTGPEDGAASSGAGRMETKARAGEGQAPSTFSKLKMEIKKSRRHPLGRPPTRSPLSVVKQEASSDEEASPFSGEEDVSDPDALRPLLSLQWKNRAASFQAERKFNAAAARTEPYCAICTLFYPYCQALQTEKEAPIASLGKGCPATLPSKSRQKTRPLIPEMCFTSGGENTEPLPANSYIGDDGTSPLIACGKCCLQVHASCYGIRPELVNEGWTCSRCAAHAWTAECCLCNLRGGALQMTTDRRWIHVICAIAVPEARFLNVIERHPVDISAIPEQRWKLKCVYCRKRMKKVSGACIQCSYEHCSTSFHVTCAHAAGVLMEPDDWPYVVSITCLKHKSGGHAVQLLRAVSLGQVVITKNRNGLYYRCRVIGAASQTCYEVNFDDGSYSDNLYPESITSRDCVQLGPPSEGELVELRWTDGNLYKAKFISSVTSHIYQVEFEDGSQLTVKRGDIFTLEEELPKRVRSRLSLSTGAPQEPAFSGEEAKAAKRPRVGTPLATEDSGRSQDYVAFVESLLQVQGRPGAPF

The target of assay [2] is prolyl hydroxylase domain 2 (UniProt Q9GZT9 1-426).
Chain of prolyl hydroxylase domain 2 (Q9GZT9 whole entry, the tested form may be a part): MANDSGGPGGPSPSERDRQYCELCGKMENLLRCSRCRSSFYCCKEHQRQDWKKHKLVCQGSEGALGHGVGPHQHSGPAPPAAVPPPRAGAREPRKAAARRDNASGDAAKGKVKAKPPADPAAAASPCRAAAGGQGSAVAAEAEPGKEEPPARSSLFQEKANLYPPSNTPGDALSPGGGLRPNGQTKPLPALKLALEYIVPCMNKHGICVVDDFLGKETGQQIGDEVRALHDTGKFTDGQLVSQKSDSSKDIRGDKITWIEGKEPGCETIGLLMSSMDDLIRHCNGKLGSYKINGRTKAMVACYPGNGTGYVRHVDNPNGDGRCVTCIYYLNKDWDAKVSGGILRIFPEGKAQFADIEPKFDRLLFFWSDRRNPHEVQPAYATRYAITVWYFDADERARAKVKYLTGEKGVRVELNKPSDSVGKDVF

Chain of KDM5C (P41229 whole entry, the tested form may be a part): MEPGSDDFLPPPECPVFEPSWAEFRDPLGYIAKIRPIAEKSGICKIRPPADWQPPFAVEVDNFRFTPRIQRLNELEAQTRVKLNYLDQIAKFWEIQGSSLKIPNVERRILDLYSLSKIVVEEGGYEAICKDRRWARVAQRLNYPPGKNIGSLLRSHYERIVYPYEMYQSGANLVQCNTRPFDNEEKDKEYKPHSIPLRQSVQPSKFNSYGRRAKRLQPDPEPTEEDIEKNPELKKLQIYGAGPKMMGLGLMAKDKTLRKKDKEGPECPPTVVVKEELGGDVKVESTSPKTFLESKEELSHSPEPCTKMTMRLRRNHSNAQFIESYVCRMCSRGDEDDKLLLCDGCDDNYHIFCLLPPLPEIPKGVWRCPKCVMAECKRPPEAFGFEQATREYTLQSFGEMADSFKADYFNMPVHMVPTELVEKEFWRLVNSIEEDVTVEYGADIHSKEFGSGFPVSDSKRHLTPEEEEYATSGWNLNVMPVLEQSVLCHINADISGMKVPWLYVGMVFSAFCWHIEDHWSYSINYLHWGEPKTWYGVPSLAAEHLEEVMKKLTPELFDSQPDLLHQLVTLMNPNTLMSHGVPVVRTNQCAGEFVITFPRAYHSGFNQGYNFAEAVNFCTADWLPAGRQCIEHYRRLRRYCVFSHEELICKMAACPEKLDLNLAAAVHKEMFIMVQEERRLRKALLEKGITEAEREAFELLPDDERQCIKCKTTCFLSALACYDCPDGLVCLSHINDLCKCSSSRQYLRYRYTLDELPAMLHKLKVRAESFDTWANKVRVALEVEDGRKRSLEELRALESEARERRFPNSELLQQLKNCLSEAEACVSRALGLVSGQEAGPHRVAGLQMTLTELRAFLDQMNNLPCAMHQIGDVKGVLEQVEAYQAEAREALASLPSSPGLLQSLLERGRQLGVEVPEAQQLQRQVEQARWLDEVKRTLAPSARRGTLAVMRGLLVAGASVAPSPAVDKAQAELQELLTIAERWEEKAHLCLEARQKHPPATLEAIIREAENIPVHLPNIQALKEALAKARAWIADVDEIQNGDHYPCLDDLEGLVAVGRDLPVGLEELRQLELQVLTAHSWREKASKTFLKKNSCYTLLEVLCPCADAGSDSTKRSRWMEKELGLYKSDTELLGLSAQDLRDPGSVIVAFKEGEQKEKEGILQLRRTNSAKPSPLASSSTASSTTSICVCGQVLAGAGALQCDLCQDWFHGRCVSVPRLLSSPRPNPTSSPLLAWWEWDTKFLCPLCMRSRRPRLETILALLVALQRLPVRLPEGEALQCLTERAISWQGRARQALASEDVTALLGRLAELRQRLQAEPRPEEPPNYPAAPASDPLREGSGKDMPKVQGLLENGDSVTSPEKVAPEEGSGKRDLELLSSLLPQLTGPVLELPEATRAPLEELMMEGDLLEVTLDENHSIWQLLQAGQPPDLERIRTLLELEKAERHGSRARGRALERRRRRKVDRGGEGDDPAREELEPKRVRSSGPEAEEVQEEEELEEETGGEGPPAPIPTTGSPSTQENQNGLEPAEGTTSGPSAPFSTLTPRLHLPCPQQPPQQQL

B1: CP4 (peptide)
chain: YLKSRRSGLTWIPC
modifications: not fully specified; N-terminal L-Tyr (^LTyr library, N-chloroacetyl-L-Tyr) cyclised by a thioether to a downstream cysteine
Turning to B1, the “IC50 of inhibition of demethylase activity (AlphaScreen activity assay)” value with KDM4C was 17 nM; in the assay with KDM5C, greater than 10 µM; in assay [1], 20 nM; with KDM4B, 6 nM. In addition, in assay [2], the “IC50 of inhibition of PHD2 (MALDI–TOF MS assay)” value was greater than 1 mM.

The values are drawn from article PMC5384220, “Highly selective inhibition of histone demethylases by de novo macrocyclic peptides” (Nature Communications, 2017).
